Data reported in paper PMC12499469.

Molecular target: GRB2 (human (cDNA from 293T or brain glioma cells)), P62993
Experiment: molecular recruitment colocalization (MRC), live-cell fluorescence imaging; bait fused to scFv and a fluorescent protein, recruited by dCas9-10xGCN4 (SunTag) and sgRNA MUC4-272kb to a repeated genomic locus in SunTag10x-dCas9-HEK293T cells; preys fused to mCherry or mTagBFP2 with NLS; colocalized spots imaged 24 h after transfection, 37 °C
Settings: remark: other sources report otherwise

SNR ratio (GRB2/SOS1 puncta): 1.46
B1: SOS1, Q07889 1-1333 (natural protein)
chain: MQAQQLPYEFFSEENAPKWRGLLVPALKKVQGQVHPTLESNDDALQYVEELILQLLNMLCQAQPRSASDVEERVQKSFPHPIDKWAIADAQSAIEKRKRRNPLSLPVEKIHPLLKEVLGYKIDHQVSVYIVAVLEYISADILKLVGNYVRNIRHYEITKQDIKVAMCADKVLMDMFHQDVEDINILSLTDEEPSTSGEQTYYDLVKAFMAEIRQYIRELNLIIKVFREPFVSNSKLFSANDVENIFSRIVDIHELSVKLLGHIEDTVEMTDEGSPHPLVGSCFEDLAEELAFDPYESYARDILRPGFHDRFLSQLSKPGAALYLQSIGEGFKEAVQYVLPRLLLAPVYHCLHYFELLKQLEEKSEDQEDKECLKQAITALLNVQSGMEKICSKSLAKRRLSESACRFYSQQMKGKQLAIKKMNEIQKNIDGWEGKDIGQCCNEFIMEGTLTRVGAKHERHIFLFDGLMICCKSNHGQPRLPGASNAEYRLKEKFFMRKVQINDKDDTNEYKHAFEIILKDENSVIFSAKSAEEKNNWMAALISLQYRSTLERMLDVTMLQEEKEEQMRLPSADVYRFAEPDSEENIIFEENMQPKAGIPIIKAGTVIKLIERLTYHMYADPNFVRTFLTTYRSFCKPQELLSLIIERFEIPEPEPTEADRIAIENGDQPLSAELKRFRKEYIQPVQLRVLNVCRHWVEHHFYDFERDAYLLQRMEEFIGTVRGKAMKKWVESITKIIQRKKIARDNGPGHNITFQSSPPTVEWHISRPGHIETFDLLTLHPIEIARQLTLLESDLYRAVQPSELVGSVWTKEDKEINSPNLLKMIRHTTNLTLWFEKCIVETENLEERVAVVSRIIEILQVFQELNNFNGVLEVVSAMNSSPVYRLDHTFEQIPSRQKKILEEAHELSEDHYKKYLAKLRSINPPCVPFFGIYLTNILKTEEGNPEVLKRHGKELINFSKRRKVAEITGEIQQYQNQPYCLRVESDIKRFFENLNPMGNSMEKEFTDYLFNKSLEIEPRNPKPLPRFPKKYSYPLKSPGVRPSNPRPGTMRHPTPLQQEPRKISYSRIPESETESTASAPNSPRTPLTPPPASGASSTTDVCSVFDSDHSSPFHSSNDTVFIQVTLPHGPRSASVSSISLTKGTDEVPVPPPVPPRRRPESAPAESSPSKIMSKHLDSPPAIPPRQPTSKAYSPRYSISDRTSISDPPESPPLLPPREPVRTPDVFSSSPLHLQPPPLGKKSDHGNAFFPNSPSPFTPPPPQTPSPHGTRRHLPSPPLTQEVDLHSIAGPPVPPRQSTSQHIPKLPPKTYKREHTHPSMHRDGPPLLENAHSS
